These results are taken from the supplement of paper PMC11316812.

The subject of one data set is hTERT-HMEC. The data set is described as follows: percentage of EdU-negative (G0-arrested) nuclei per well, 72 h; higher = more G0 arrest. Conditions: reference: sequence is the full UniProt precursor, the tested protein was the secreted form or ectodomain.
In a further data set the test system is MCF7. Described as above. The settings on record: reference: sequence is the full UniProt precursor, the tested protein was the secreted form or ectodomain.
The mark [1] stands for this setting: protein concentration 0.0225 µM.
[2] abbreviates: protein concentration 0.03125 µM.
The mark [3] stands for this setting: protein concentration 0.3125 µM.
The mark [4] stands for this setting: protein concentration 0.0185 µM.

± gives the standard deviation of the averaged measurements.
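Note: secreted proteins added to cultured cells, EdU pulse at the end, nuclei found by Hoechst imaging, EdU status from nuclear versus surrounding ring intensity ratio, PBS as neutral control.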

Turning to “MARAHWGCCPWLVLLCACAWGHTKPVDLGGQDVRNCSTNPPYLPVTVVNTTMSLTALRQQMQTQNLSAYIIPGTDAHMNEYIGQHDERRAWITGFTGSAGTAVVTMKKAAVWTDSRYWTQAERQMDCNWELHKEVGTTPIVTWLLTEIPAGGRVGFDPFLLSIDTWESYDLALQGSNRQLVSITTNLVDLVWGSERPPVPNQPIYALQEAFTGSTWQEKVSGVRSQMQKHQKVPTAVLLSALEETAWLFNLRASDIPYNPFFYSYTLLTDSSIRLFANKSRFSSETLSYLNSSCTGPMCVQIEDYSQVRDSIQAYSLGDVRIWIGTSYTMYGIYEMIPKEKLVTDTYSPVMMTKAVKNSKEQALLKASHVRDAVAVIRYLVWLEKNVPKGTVDEFSGAEIVDKFRGEEQFSSGPSFETISASGLNAALAHYSPTKELNRKLSSDEMYLLDSGGQYWDGTTDITRTVHWGTPSAFQKEAYTRVLIGNIDLSRLIFPAATSGRMVEAFARRALWDAGLNYGHGTGHGIGNFLCVHEWPVGFQSNNIAMAKGMFTSIEPGYYKDGEFGIRLEDVALVVEAKTKYPGSYLTFEVVSFVPYDRNLIDVSLLSPEHLQYLNRYYQTIREKVGPELQRRQLLEEFEWLQQHTEPLAARAPDTASWASVLVVSTLAILGWSV”, the “percentage of EdU-negative” value in the data set with hTERT-HMEC (setting [1]) came out at 5.4 ± 1.8%; in the data set with hTERT-HMEC (protein concentration 0.225 µM) it was 6.21 ± 0.83%; in the data set on MCF7 (setting [1]), 23.2 ± 0.31%; in the data set on MCF7 (protein concentration 0.225 µM) it was 26.8 ± 0.78%.

Take “MARAMAAAWPLLLVALLVLSWPPPGTGDVVVQAPTQVPGFLGDSVTLPCYLQVPNMEVTHVSQLTWARHGESGSMAVFHQTQGPSYSESKRLEFVAARLGAELRNASLRMFGLRVEDEGNYTCLFVTFPQGSRSVDIWLRVLAKPQNTAEVQKVQLTGEPVPMARCVSTGGRPPAQITWHSDLGGMPNTSQVPGFLSGTVTVTSLWILVPSSQVDGKNVTCKVEHESFEKPQLLTVNLTVYYPPEVSISGYDNNWYLGQNEATLTCDARSNPEPTGYNWSTTMGPLPPFAVAQGAQLLIRPVDKPINTTLICNVTNALGARQAELTVQVKEGPPSEHSGISRNAIIFLVLGILVFLILLGIGIYFYWSKCSREVLWHCHLCPSSTEHASASANGHVSYSAVSRENSSSQDPQTEGTR [A0A0C4DG49]”: the “percentage of EdU-negative” value in the data set on hTERT-HMEC (setting [1]) was found to be 4.71 ± 0.025%; in the data set on hTERT-HMEC (protein concentration 0.225 µM), 10.7 ± 2.4%; in the data set on MCF7 (setting [1]), 23.8 ± 1.6%; with MCF7 (protein concentration 0.225 µM) it was 26.1 ± 2.5%.

“MARARGSPCPPLPPGRMSWPHGALLFLWLFSPPLGAGGGGVAVTSAAGGGSPPATSCPVACSCSNQASRVICTRRDLAEVPASIPVNTRYLNLQENGIQVIRTDTFKHLRHLEILQLSKNLVRKIEVGAFNGLPSLNTLELFDNRLTTVPTQAFEYLSKLRELWLRNNPIESIPSYAFNRVPSLRRLDLGELKRLEYISEAAFEGLVNLRYLNLGMCNLKDIPNLTALVRLEELELSGNRLDLIRPGSFQGLTSLRKLWLMHAQVATIERNAFDDLKSLEELNLSHNNLMSLPHDLFTPLHRLERVHLNHNPWHCNCDVLWLSWWLKETVPSNTTCCARCHAPAGLKGRYIGELDQSHFTCYAPVIVEPPTDLNVTEGMAAELKCRTGTSMTSVNWLTPNGTLMTHGSYRVRISVLHDGTLNFTNVTVQDTGQYTCMVTNSAGNTTASATLNVSAVDPVAAGGTGSGGGGPGGSGGVGGGSGGYTYFTTVTVETLETQPGEEALQPRGTEKEPPGPTTDGVWGGGRPGDAAGPASSSTTAPAPRSSRPTEKAFTVPITDVTENALKDLDDVMKTTKIIIGCFVAITFMAAVMLVAFYKLRKQHQLHKHHGPTRTVEIINVEDELPAASAVSVAAAAAVASGGGVGGDSHLALPALERDHLNHHHYVAAAFKAHYSSNPSGGGCGGKGPPGLNSIHEPLLFKSGSKENVQETQI [Q9NT99]”: the “percentage of EdU-negative” value was 5.15 ± 0.48% with hTERT-HMEC (setting [2]), 6.95 ± 0.74% with hTERT-HMEC (setting [3]), 22.3 ± 1.6% in the data set with MCF7 (setting [2]) and 26.4 ± 1.3% in the data set with MCF7 (setting [3]).

Turning to “MAREMTILGSAVLTLLLAGYLAQQYLPLPTPKVIGIDLGTTYCSVGVFFPGTGKVKVIPDENGHISIPSMVSFTDNDVYVGYESVELADSNPQNTIYDAKRFIGKIFTAEELEAEIGRYPFKVLNKNGMVEFSVTSNETITVSPEYVGSRLLLKLKEMAEAYLGMPVANAVISVPAEFDLKQRNSTIEAANLAGLKILRVINEPTAAAMAYGLHKADVFHVLVIDLGGGTLDVSLLNKQGGMFLTRAMSGNNKLGGQDFNQRLLQYLYKQIYQTYGFVPSRKEEIHRLRQAVEMVKLNLTLHQSAQLSVLLTVEEQDRKEPHSSDTELPKDKLSSADDHRVNSGFGRGLSDKKSGESQVLFETEISRKLFDTLNEDLFQKILVPIQQVLKEGHLEKTEIDEVVLVGGSTRIPRIRQVIQEFFGKDPNTSVDPDLAVVTGVAIQAGIDGGSWPLQVSALEIPNKHLQKTNFN”, the “percentage of EdU-negative” value in the data set on hTERT-HMEC (setting [4]) turned out to be 4.53 ± 0.31%; with hTERT-HMEC (protein concentration 0.185 µM), 5.54 ± 0.38%; with MCF7 (setting [4]) it was 25 ± 2%; in the data set with MCF7 (protein concentration 0.185 µM), 25.9 ± 0.78%.
